From the nanobody polyreactivity screen of Harvey et al. (2022)

Experiment: yeast display, Sf9 membrane polyspecificity reagent, FACS + sequencing; frameworks hold sequencing errors
In short: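 A nanobody's polyreactivity label depends on the gate it was sorted from. Yeast display cells were stained with 10% biotinylated, detergent-solubilized Sf9 membrane reagent for 1 hour at 4 °C, enriched on streptavidin microbeads and sorted by FACS. The low and high (top ~1%) gates were set on anti-HA fluorescence for expression and streptavidin fluorescence for reagent binding.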

Row | Sequence | polyreactivity (PSR sort gate)
1 | QVQLVESGGGLVQAGGILRLSCAASGIIFGPNAMGWYRQAPGKERELVAAITSGGRTYYADSVKGRFTISRDNAKNTVYLHMNSLKPEDTAVYYCAARVWSWRSKYDYWGQGTQVTVSS | high polyreactivity
2 | QVHLVESGGGLVQAGGSLRLSCAPSGSTFIRNAILWYRQAPGKDRELVAPISRSGSSTYYADSVKGRFTISRDNAKNTVYLQMNSLKPEDTAVYYCAAETDSRKARVLYDSWGQGTQVTVSS | high polyreactivity
3 | QVQLVESGGGLVQAGGSLRLSCAASGITFRYYAMGWYRQAPGKERELVSVISKGGTSTYYADSVKGRFTISRDNAKITVYLQMNSLKPEDTAVYYCAAAYFSSGYKYYYWGQGNQVTVSS | high polyreactivity
4 | QVQLVESGGGLVQAGGSLRLSCAASGFTFSRYAMGWYRQAPGKERELVAAISKSTDSTYYADSVKGRFTISRDNAKNTVYLQMNSLKPEDTAVYYCAAVQRYKGLQDDSWGQGTQVTVSS | high polyreactivity
5 | QVQLVESGGGLVQAGGSLRLSCAASGSIFACYAMGRYRQAPGKERELVATITWSGGSTYYADSVKGRFTISRDNAKNTVYLQMNSLKPEDTAVYYCAAEVVGIWYDLWYQGDYWGQGTQVTVSS | low polyreactivity
6 | QVQLVESGGGLVQARGSLRLSCAASGFTFSDYVMGWYRQAPGKERELVAVITSGSSTYYADSVKGRFTISRDNAKNTVYLQMNSLKPEDTAVYYCNADPDDGYFSDFDYWGQGTQVTVSS | low polyreactivity
7 | QDQQVESGGGLVQAGGSLRLSCAASGFTFRKKAKGWYRQAPGKERELVAAISASGGSTYYADSVKGRFTISRDNAKNTVYLQMNSLKPEDTDVFYCARDRSNAFNYWGQGTQVTVSS | high polyreactivity
8 | QVQLVESGGGLVQAGGSLRLSCAASGRTFAFYAMGWYRPAPGKERELVASIRGGGGTNYADSVKGRFTISRDNAKNPVYLQMNSVKPEDTAVYYCAARGYGYRGYYYWGQGTQVTVSS | high polyreactivity
9 | QVQLVESGGGLVQAGGSLRLSCAASGSTFGTNAMGWYRQAPGKEREFVASIRKSGGSTYYADSVKGRFTISRDNSKNTVYLQMNSLKPEDTAVYYCAAVYRRYLGGGYDYWGQGTQVTVSS | high polyreactivity
10 | QVQLVESGGGLVQAGGSLRLSCAASGRIFLGYTMGWYRQAPGKERELVASMTWSGGSTYYADSVKGRFTISRDKAKNTVYVQMNSLKPEDTAVYYCIAVFWVARGRYDYWGQGTQVTVSS | high polyreactivity
11 | QVQLVESGGGLVQAGGSLRLSCAASGFIFAWYAMGWYRQAAGKERQLVATISSSGARTYYADSVKGRFTISRDNAKITVYLQMNSLKPEDTAVYYCAFGSVGRLKFYYWGQGTQVTVSS | high polyreactivity
12 | QVQLVESGGGLVQPGGSLRLSCAASGSIDCYGMGWYRQAPGKERELVAIITSVYSTYYADSVKGRFKISRDNAKNTVYLQMNSLKPEDTAVYYCAATAAYFYGQFYYWGQGTQVTVSS | high polyreactivity
13 | QGQLVESGGGLVQAGGSLRLSCAASGSIFVINAMGWYRQAPGKERELVAAIDWGGDTTYYADSVKGRFTISRDNAKNTVYLQMNSLKPEDSAVYYCAAGYYLRRYYYWGQGTQVTVSS | high polyreactivity
14 | QVQLVESGGGLVQAGGSLRLSCAASGSTFVGNVMGWYRQAPGKERELVATISRSGGRTYYADSVKGRFTISRDNAKNTVYLQMNSLKPEDTAVYYCAAGFVYTTASRWGGRTRYDYWGQGTQVTVSS | high polyreactivity
15 | QVQLVESGGGLVQAGGSLRLSCAASGYIFLANAMGWYRQAPGKERELVARIDTRGDSTYYADSVKGRFTISRDTAKNTVYLQMNSLKPEDTAVYYCAADQQTWWQYSLINEYDYWGQGTQLTVSS | low polyreactivity
16 | QLQLGESGGGLVQAGGSLRLSCAGSGSIFNYYAMGWYRQATGKERELVAAITSGGSTYYADSVKGRFTISRDNAKNTVYLQMNSLKPEDTAVYYCNKAFPYIYEYWGQGTQVTVSS | low polyreactivity
17 | QVQLVESGGGLVQAGGSLRLSCAASGRIFGLNAMGWYRQAPGKEREIVAAIRWRGGSTYYADSVKGLFTISRDNANNNVYLLMNSLKPEDTAVYYCAADRNLGVSRYGYWGQGTQVNVSS | high polyreactivity
18 | QVQLVESGVGLVQAGGSLRLSCAASGITFEGYAMGWYRQAPGKERELVAAIRSSGTSTYYADSVKGRFTMSRDNAKNTVYLQMNSLKPEDTAVYYCNRARSSSRYDYWGQGTQVTVSS | low polyreactivity
19 | QVQLVESGGGLVQAGGSLPLSCAASGRIFAFNVMGWYRQAPGKERELVAAISTRDGSTYYADSVKGRFTISRDNAKNTVYLQMNSLTPEDTAVYYCNAVVRYYDWGYWDYDYWGQGTQVTVSS | low polyreactivity
20 | QVQLVESGGGLVQAGGSLRLSCAASGSIISYYAMGWYRQAPGKERELVAVINSGSTNYADSVKGRFTLSRDNSKNTVYLQMHSLNPEDTAVYYCAAYSLLYLLEQYTTAPYDYWGQGTQVTVSS | low polyreactivity
21 | QVHLVESCGGLVQAGGSLRLSCAASGITFWNYAMGRYRQAPGKETELVAAISYSGGSTYYADSVKGRFTISRDNAKNTFYLQMNSLKPEDTGVYYCAATLPTNWVRYDYWGQGTQVTVSS | low polyreactivity
22 | QVQLVESGGGLVQAGGSLRLSCAASGSTFRRYAMGWSRQAPGKVRELVAAISRTGRTNYADSVKGRFTISRDNAKYTVYLQMNSLKPEDTAFDYCAAKSSTKQRKYYWGQGTQVTVSS | high polyreactivity

Row | Sequence | polyreactivity (PSR sort gate)
23 | QVQLVESGGGLVQAGGSLRLSCAASGITFDRYAMGWYRQAPGKERELVAAITSGGRTYYADSVKGRFTISRDNAKNTVYLQMNSLKPEDTAVYYCNATRGQYVGRYYYWGQGSQVTVSS | high polyreactivity
24 | QVQLVESGGGLVQAGGSLRLSCAASGRIFGRYAKGWYRQAPGKEMELVAAISRSGGSTYYADSVKGRFTISRDNAKNTVYLQMNSLKPEDTAVYDCAAVPGISVGRQPGYDSDYWGQGTQVTVSS | low polyreactivity
25 | QVQLVESGGGLVQAGGSLRLSCAASGSTFWTNAMAWYRQSPGKERELVATITYSTGTYADSVKGRFTISRDNAKNTVYLQMNSLKPEDTAVYYCAAEVVAQMNYWGQGTQVTVSS | low polyreactivity
26 | QVQLVESGGGLVQAGGSLRLSCAASGLIFPRYAMGWYRQAPGKERELVAAITSRAGSTYYADSVKGRFTISRDNAKNTVYLQMNSLKPEDTAVYYCAAVSDGWDGDMYYWGQGTQVTVSS | low polyreactivity
27 | QVQLVESGGGLVQAGGSLRLTCAASGIIFGHYAMGWYRQAPGKERELVAAITASSGNTYYADSVKGRFTISRDNAKNTVYLQMNSLKPEDTAVYYCAAVSYSSYRYDYWGQGTQVTVSS | high polyreactivity
28 | QVQLVESGGGLVQAGGSLRLSCAASGRTFSVNAMGWYRQAPGKERELVAAITSGGSTYYADSVKGRFTISRDNAKNTVYLQMNSLKPEDTAVYYCNAVGRLRRSRLRMDYWGQGTQVTVSS | high polyreactivity
29 | QVQLVESGGGLVQAGGSLRLSCAASGFIFWYNAMGWYRPAPGKEREFVAAISSGGSTTYADSVKGRFTISRDNAKNTVYLQMNSLKPEDTAVYYCAAGSYDYDYWGQGTQVTVSS | low polyreactivity
30 | QVQLVESGGGLVQAGGSLRLSCADSGFTFSWYTMGWYRQAPGKERELVAAITVSGGSTYYADSVKGRFTISRDYAKNTVYLQMNSLKPEDTAVYYCNAQDPFTYYSSSPTYDYWGQGTQVTVSS | low polyreactivity
31 | QVQLVESGGGLVQAGGSLRLSSAASGFIYRGNVMGWYRQAPGKERELVAAITWSGGSTYYADSVKGRFTISRDNAKNTVYLQMNSLKPDDTAVYYCNADLYIYEWYPALHSNDYWGQGSQVTVSS | low polyreactivity
32 | QVQLVESGAGLVQAGGILRLSCAASGRIFQYNAMGWYRQAPGKEREWVAAIRRGGGSTYYADSVKGRFTISRDNAKNTVYLQMNSLKPEDTAVYYCAARRKRVSFYPEYDYWGQGTQVTVSS | low polyreactivity
33 | QVQLVESGGGLVQAGGSLRLSCAASGSTFVYYAMGWYRQAPGKERELVAVISDDGGTYYADSVKGRFTISRDNAKNTVYLQMNSLKPEDTAVYYCAADPYWFFPHYDSWGQGTQVTVSS | low polyreactivity
34 | QVQLVESGGGLVQAGGRLRLSCAASGSTFVGNAMGWYRQAPGKERELVAAIRKSGGRTYYADSVKGRFTISRDNAKNTVYLQMNSLKPEDTEVYYCAVDRLLYYLIYYRAGVEGGYWGQGTQVTVSS | high polyreactivity
35 | QVQLVESGGGLVQAGGSLRLSCAASGLIFTAYAMGWYRPAPGKERELVAAITGSGGRTYYADSVKGRFTISRDNALNSVYLQMNSLKAEDTAVYYCAADFPARGSSTYDYWGQGTQVTVSS | high polyreactivity
36 | QVQLLESGGGLVQARGSLRLSCAASGSIFTYYAMGWYRQAPGIEREFVAAISRRGGSTYYADSVKGRFTISRDNAKNTVYLQMNSLKAVDTAVYYCAKDPSFTRGYKEGGGYDYWGQGTQVTVSS | high polyreactivity
37 | QVQLVESGGGLVQAGGSLRLSCAASGRTFRYYAMGWYRQAPGKEREWDAAISRGDSTHYADSVKGRFTISRDNAKNSVYLQMNSLKPEDTEVYYCAAYRGRSVDRQPYYWGQGTQVTVSS | high polyreactivity
38 | QVQLVESGGGLVQAGGSLRLSCAASGITFKYYAMGWYRQAPGKERELVAAITRGGSTYYADSVKGRFTISRDNAKNTVYLQMNSLKPEDTAVYYCNKARTYELYWGQGTQVTVSS | high polyreactivity
39 | QVQLVESGGGLVQAGGSLRLSCAASGITFWVYVMGWYRQAPGKEREFVADISSGAGTTYYADSVKGRFTISRDNAKNTVYLQMNSLKPEDTAVYYCAARRWWPQWYDYWGQGTQVTVSS | high polyreactivity
40 | QVQLVESGGGLVQAGGSLRLTCAASGITFQYYVMGWYRHAPGKERELVAAITRRGGSTYYADSVKGRFTISRDNAKNTVYLQMNSLKPEDTAVYYCAAAITYLPAYRYNYWGQGTQVTVSS | high polyreactivity
41 | QVQLVETGGGLVQAGGSLRLSCAASGSTFSRNAMGWYRQAPGKEREFVAAISWSGSSTYYADSVKGRFTISRDNEKNTVYLQMNSLKPEDTAVYYCAARETWYPYYWMGYWGQGAQVTVSS | high polyreactivity
42 | QVQLVESGGGLVQAGGSLRLSCAASGITFYINAMGWYRQAPGKERELVAVIDSRGSSTFYADSVKGRFTISRDNAKNTVYLVMKSLKPEDTAVYYCAAEPFWDYYATFYWKYGYWGQGTQVTVSS | low polyreactivity
43 | QVQLVESGGGLVQAGGSLRLSCAASGFTFRLNAMGWYRQAPGKEREMVAAISSSGGRTYYADSVKGRFTISRDNAKNTVYLQLNSLKPEDTAVYYCAADYTTRYLDGVVARGYYWGQGTQVTVSS | high polyreactivity
